Experimental findings from article PMC9596371 (Nature Chemical Biology, 2022) are described below.

Where a chain is given by its changes, count along the chain named.

B1: COVA2-14 IgG (antibody, V domains shown)
VH: QVQLVQSGAEVKKPGSSVKVSCKASGGTFSSYAIIWVRQAPGQGLEWMGGIIPIFGTANYAQKFQGRVTITTDESTSTAYMELSSLRSEDTAVYYCARVRYYDSSGYYEDYWGQGTLVTVSS
VL: EIVLTQSPATLSLSPGERATLSCRASQSVSSYLAWYQQEPGQAPRLLIYDASNRATGIPARFSGSGSGTDFTLTISSLEPEDFAVYYCQQRSNWPPMYTFGQGTKVEIK
B2: COVA2-18 IgG (antibody, V domains shown)
VH: B1 VH with Q1E, I35S, A58T, R100Y, Y101S, E109L, D110E, L117R
VL: B1 VL with E39K, M97S, Y98I, K105R, V106L
B3: COVA2-14 Fab (Fab, V domains shown)
VH: B1 VH
VL: B1 VL
B4: COV2-2147 IgG (antibody, V domains shown)
VH: QVQLAESGGGVVQPGRSLRLSCAASGFTFSSYAMHWVRQAPGKGLEWVAVISYDGSNKYYADSVKGRFTISRDNSKNTLYLQMNSLRAEDTAVYYCARSTSGSYYYGMDVWGQGTTVTVSS
VL: QSALTQPASVSGSPGQSITISCTGTSSDVGDYNYVSWYQQHPGKAPKLMIYDVSNRPSGVSNRFSGSKSGNTASLTISGLQAEDEAEYYCSSYTSSSTLLYVFGTGTKVTVL
B5: CV27 Fab (Fab, V domains shown)
VH: B4 VH with A5V, V50L, T100F, S101G
VL: QSALTQPASVSGSPGQSITISCTGTSSDVGGYNYVSWYQQHPGKAPKLMIYDVSNRPSGVSNRFSGSKSGNTASLTISGLQAEDEADYYCSSYTSSSTPYVFGTGTKVTVL
B6: COV2-2143 Fab (Fab, V domains shown)
VH: EVQLVESGGGLVQPGGSLRLSCAASGFTVSSNYMSWVRQAPGKGLEWVSVIYSAGSTYYADSVKGRFSISRDKSKNTLYLQMNSLRAEDTAVYYCAKEGGSGSLRYYYYGMDVWGQGTTVTVSS
VL: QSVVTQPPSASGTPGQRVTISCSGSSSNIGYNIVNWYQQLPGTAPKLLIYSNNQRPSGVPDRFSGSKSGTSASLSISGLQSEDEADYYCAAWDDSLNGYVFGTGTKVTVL
B7: COV2-2449 Fab (Fab, V domains shown)
VH: QVQLVESGGGVVQPGRSLRLSCATSGFTFSSFALHWVRQAPGKGLEWVTVISDDGNNKYYVDSVKGRFTISRDNSKNTLFLQMNSLRVEDTAIYYCARASYNSNWSIGEYFRDWGQGTLVTVSS
VL: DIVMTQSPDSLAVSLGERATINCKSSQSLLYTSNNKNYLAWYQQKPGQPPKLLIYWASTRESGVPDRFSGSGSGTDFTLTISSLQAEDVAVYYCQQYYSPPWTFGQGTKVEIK
B8: CV27 IgG (antibody, V domains shown)
VH: B4 VH with A5V, V50L, T100F, S101G
VL: B5 VL
B9: COV2-2143 IgG (antibody, V domains shown)
VH: B6 VH
VL: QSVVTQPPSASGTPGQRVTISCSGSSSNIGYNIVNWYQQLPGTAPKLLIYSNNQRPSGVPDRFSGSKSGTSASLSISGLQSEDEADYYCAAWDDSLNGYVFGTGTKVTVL
B10: COV2-2449 IgG (antibody, V domains shown)
VH: B7 VH
VL: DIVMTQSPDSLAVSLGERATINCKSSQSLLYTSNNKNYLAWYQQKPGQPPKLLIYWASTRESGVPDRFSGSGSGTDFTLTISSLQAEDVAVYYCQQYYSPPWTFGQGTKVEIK

For the first assay, the target named is T1, SARS-CoV-2 spike protein (FL-GCN4-Avi-His, 2P, biotinylated trimer) (SARS-CoV-2, Wuhan-Hu-1 (strain named …, UniProt P0DTC2, stabilised, biotin on the Avi tag)). The assay can be described thus: BLI. Conditions: both partners purified.
As to B1, the binding result was “binds”. The same measure, in the same setting: then B2, with “binds”; and B3, with “binds”. The same measure, in the same setting: as for B4, the entry is “binds”. Same read-out and setting: then B5, with “binds”; and B6, with “binds”. B7: the binding result was “binds”.

The target of another assay is T1, SARS-CoV-2 spike protein …. The assay can be described thus: ELISA. Conditions: both partners purified.
For B8, the binding result is “binds”. As for B9, the binding result was “binds”. Same read-out and setting: as for B10, the entry is “binds”.
